Results on 16 molecules are retold here after patent US20150353933, “APTAMER AGAINST MIDKINE AND APPLICATIONS THEREOF” (RIBOMIC INC., published 2015).

In data set [1] the target is T1, midkine (AP-MK) (Homo sapiens, UniProt P21741 P21741:23-143).
T1 chain: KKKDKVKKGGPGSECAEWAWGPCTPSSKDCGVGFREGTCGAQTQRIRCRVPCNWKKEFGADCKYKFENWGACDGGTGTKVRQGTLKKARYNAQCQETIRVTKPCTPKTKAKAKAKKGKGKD
In words: inhibition; AP-MK binding to HepG2 cells. To be noted: tags: alkaline phosphatase fusion, APtag-5 vector (GenHunter), 293T culture supernatant. On the procedure: (§1) Using the above-mentioned AP-MK, a binding inhibitory experiment relative to TNB1 cell, which is a human neuroblastoma cell, was performed. TNB1 cells were seeded at 1×10⁵ cells/well on a 6-well plate coated with collagen I. The next day, the cells were washed with 1 mL of HBHA (HBSS+0.5 mg/mL BSA+20 mM HEPES pH 7.0), 1 U/mL AP or AP-MK, and further, the aptamer shown in SEQ ID NO: 7-1 at a final concentration of 100 nM were added and the mixture was maintained at room temperature for 90 min. After washing 5 times with 1 mL of HBHA, 200 μL of Cell Lysis Buffer (manufactured by GenHunter) was added and the mixture was stirred for 5 min. The cells were scraped with a Scraper and placed in an Eppendorf tube, vortexed for 10 sec and centrifuged at 15000 rpm for 2 min. The supernatant was recovered, and heated at 65° C. for 10 min to inactivate endogenous AP. Using 50 μL, color development was performed in the same manner as above (15 min) and the activity of AP was calculated.
(§2) An altered form of SEQ ID NO: 7-1 was produced, and AP-MK binding inhibitory experiment was performed using HepG2 and TNB1 cells and in the same manner as above. The sequences of the altered forms actually produced are shown below. While Poly dA for BIAcore measurement is added to the 3′-terminus of the aptamers shown in SEQ ID NO: 9 and SEQ ID NO: 9-1-5, an influence on the activity is not expected. The 50% inhibitory concentration (IC₅₀) was determined from the concentrations at two, above and below points sandwiching the 50% inhibitory activity (Table 2).

Data set [2] has as its target T1, midkine (AP-MK). In words: inhibition; AP-MK binding to HepG2, 500 nM aptamer. The note with it: tags: alkaline phosphatase fusion, APtag-5 vector (GenHunter), 293T culture supernatant. Here is the method:
as §1
An experiment similar to the above was performed using HepG2 cells which are human liver cancer-derived cells. It is already known that MK is deeply involved in the growth and inhibition of apoptosis of HepG2 cells (Ohuchida et al., Cancer 100, 2430-2436, 2004; Dai et al., World J. Gastroenterol. 15, 1966-1972, 2009). When the aptamer was added to the system, the binding of AP-MK and HepG2 was inhibited (Table 1).

The target of data set [3] is T2, midkine (MK) (Homo sapiens, UniProt P21741 P21741:21-143).
T2 sequence: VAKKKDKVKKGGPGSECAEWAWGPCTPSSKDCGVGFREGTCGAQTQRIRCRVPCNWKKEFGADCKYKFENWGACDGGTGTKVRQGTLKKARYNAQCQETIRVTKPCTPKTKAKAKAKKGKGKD
The experiment in a line: SPR; confirmed MK binding, as in Example 3. To be noted: tags: produced in yeast. On the procedure: (§3) The binding activities of the oligonucleotides shown by SEQ ID NO:1 to 6 obtained in Examples 1 and 2 for MK were evaluated by a surface plasmon resonance method. The measurements were performed using BIAcore2000, manufactured by BIAcore. The sensor chip used was the SA chip, which had streptavidin immobilized thereon. Bound thereto was about 1000 RU of a 16-nucleotide Poly dT with biotin bound to the 5′ end thereof. […] 70 μL of MK for analyte, prepared at 0.5 μM, was injected.
Those aptamers were evaluated by the surface plasmon resonance method in the same manner as in Example 3, and they were confirmed to have MK binding activity.

The target of data set [4] is T1, midkine (AP-MK). In words: inhibition; AP-MK binding to TNB1 cells. To be noted: tags: alkaline phosphatase fusion, APtag-5 vector (GenHunter), 293T culture supernatant. Here is the method:
as §1, §2

For data set [5], the target named is T2, midkine (MK). In words: SPR; strongly binds; 0.5 uM MK analyte; solution A (Na, K, Ca, Mg, Tris pH 7.6). The note with it: tags: produced in yeast. Here is the method:
as §3
On the technique in general: Surface plasmon resonance follows binding to a sensor surface in real time, without labels.

In general, IC50 refers to the concentration at which inhibition is half-maximal. A lower IC50 goes with greater potency in that assay.

B1: SEQ ID NO: 9-2 (mixed)
RNA: GCCAUCGCAAUGGUGAGUGGUUUAUCCGCCUGCGCAUGGCAAAAAAAAAAAAAAAA
modifications: 2'-OMe at C2,C3,C40 and RNA purines except A16,G17,A24 (2'-OH); 2'-F at all other pyrimidines; 3' 16-nt poly dA (DNA)
In the data set with midkine (AP-MK) [1], B1 gave an IC50 of 13 nM.

B2: SEQ ID NO: 9-4 (mixed)
RNA: B1 RNA
modifications: 2'-OMe at C2,C3,C40 and RNA purines except G15,A16,A24 (2'-OH); 2'-F at all other pyrimidines; 3' 16-nt poly dA (DNA)
As for B2, the IC50 in the data set with midkine (AP-MK) [1] amounted to 4.1 nM.

B3: SEQ ID NO: 11 (ssRNA)
RNA: GCGCAAUGGUGAGUGGUUUAUCCGCCUGCGC
modifications: 3' idT; 2'-OMe at 1-10,12,15,16,19,24,26-31; 2'-F at U14,U17,U18,U21,C22,C23,C25; 2'-OH at G11,G13,A20
In turn, B3 displayed an IC50 with midkine (AP-MK) [1] of 6.3 nM. This IC50 lies about 1.5-fold higher than the previous one.

B4: SEQ ID NO: 11-1 (ssRNA)
RNA: B3 RNA
modifications: 3' idT; 2'-OMe at 1-10,12,15,16,19,23-31; 2'-F at U14,U17,U18,U21,C22; 2'-OH at G11,G13,A20
For the molecule B4, in the data set with midkine (AP-MK) [1], the IC50 is 7.8 nM. As to GCCAUCGCAAUGGUGAGUGGUUUAUCCGCCUGCGCAUGGC (ssRNA, 2'-OMe at 1-3 and 38-40; 2'-F at all other pyrimidines; other purines 2'-OH) [SEQ ID NO: 7-1], the IC50 with midkine (AP-MK) [1] is 6 nM; with midkine (AP-MK) [4], 18 nM. In addition, the activity with midkine (AP-MK) [2] was 93 % inhibition. The binding result in the data set with midkine (MK) [3] was “binds”.

For GCCAUCGCAAUGGUGAGUGGUUUAUCCGCCUGCGCAUGGC (ssRNA, 2'-F pyrimidines) [SEQ ID NO: 7], the binding result in the data set with midkine (MK) [3] is recorded as “binds”. Turning to GCCAUCGCAAUGGUGAGUGGUUUAUCCGCCUGCGCAUGGC (ssRNA, 5' 40PEG2ts; 3' idT; 2'-OMe at 1-3 and 38-40; 2'-F at all other pyrimidines) [SEQ ID NO: 7-2], the IC50 with midkine (AP-MK) [1] turned out to be 4.9 nM; in the data set with midkine (AP-MK) [4] it was 26 nM.

B5: SEQ ID NO: 7-3 (ssRNA)
RNA: GCCAUCGCAAUGGUGAGUGGUUUAUCCGCCUGCGCAUGGC
modifications: 5' 40PEG2ts; 3' idT; 2'-OMe at 1-13,19,20,23,28,30-40; 2'-F at U14,U18,U21,U22,U25,C26,C27,C29; 2'-OH at G15,A16,G17,A24
On to B5, for which the IC50 with midkine (AP-MK) [1] came to 1.7 nM; with midkine (AP-MK) [4], 11 nM.

B6: SEQ ID NO: 7-9 (ssRNA)
RNA: B5 RNA
modifications: 3' idT; 2'-OMe at 1-13,16,17,19,20,23,28,30-40; 2'-F at U14,U18,U21,U22,U25,C26,C27,C29; 2'-OH at G15,A24
In the data set with midkine (AP-MK) [1], B6 gave an IC50 of 4.7 nM.

B7: SEQ ID NO: 7-5 (ssRNA)
RNA: B5 RNA
modifications: 3' idT; 2'-OMe at 1-13,16,19,20,23,28,30-40; 2'-F at U14,U18,U21,U22,U25,C26,C27,C29; 2'-OH at G15,G17,A24
As for B7, in the data set with midkine (AP-MK) [1], the half-inhibitory concentration (IC50) is under 2 nM.

B8: SEQ ID NO: 7-7 (ssRNA)
RNA: B5 RNA
modifications: 3' idT; 2'-OMe at 1-13,16,19,20,23,27,28,30-40; 2'-F at U14,U18,U21,U22,U25,C26,C29; 2'-OH at G15,G17,A24
Take B8: the IC50 with midkine (AP-MK) [1] is under 2 nM.

B9: SEQ ID NO: 7-8 (ssRNA)
RNA: B5 RNA
modifications: 3' idT; 2'-OMe at 1-13,16,19,20,23,28-40; 2'-F at U14,U18,U21,U22,U25,C26,C27; 2'-OH at G15,G17,A24
In the data set with midkine (AP-MK) [1], B9 gave a half-inhibitory concentration (IC50) of under 2 nM.

B10: SEQ ID NO: 7-4 (ssRNA)
RNA: B5 RNA
modifications: 5' 40PEG2ts; 3' idT; 2'-OMe at C2,C3,C40 and all purines except G15,A16,G17,A24 (2'-OH); 2'-F at all other pyrimidines
B10: the IC50 with midkine (AP-MK) [1] amounted to 3.6 nM; in the data set with midkine (AP-MK) [4], 18 nM.

B11: SEQ ID NO: 7-6 (ssRNA)
RNA: B5 RNA
modifications: 3' idT; 2'-OMe at 1-14,16,19,20,23,28,30-40; 2'-F at U18,U21,U22,U25,C26,C27,C29; 2'-OH at G15,G17,A24
As for B11, the IC50 in the data set with midkine (AP-MK) [1] is under 2 nM.

B12: SEQ ID NO: 1 (ssRNA)
RNA: GGGAGAGGAGAAGAGGAAGCUAUCGCAAUGGUGAGUGGUUUAUCCGCCUGCGCAUGGUUAGAGGACAGGAAUGAGGA
modifications: 2'-F pyrimidines; 16-nt poly A at 3' end for SPR
Consider B12, for which the binding result in the data set with midkine (MK) [5] is on record as “binds”.

B13: SEQ ID NO: 8-1 (ssRNA)
RNA: GUCUGUGUGGUUUAUCCGGAC
modifications: 2'-OMe at G1,G9,G10,U13,G18,G19,A20; 2'-F at all other pyrimidines; 2'-OH at G5,G7,A14
In turn, B13 had an activity with midkine (AP-MK) [2] of 76 % inhibition. The binding result in the data set with midkine (MK) [3] is “binds”.
